Measurements taken from the nanobody polyreactivity screen of Harvey et al. (2022).

Test: yeast display, Sf9 membrane polyspecificity reagent, FACS + sequencing; frameworks hold sequencing errors
How it was run: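 A synthetic nanobody library was expressed on Saccharomyces cerevisiae BJ5465 by galactose induction for 36–48 hours. The library was stained for 1 hour at 4 °C with 10% biotinylated, detergent-solubilized Sf9 membrane reagent and enriched with streptavidin microbeads before FACS. Low and high (top ~1%) gates were set on anti-HA fluorescence for expression and streptavidin fluorescence for reagent binding, and each polyreactivity label reflects the gate of origin.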

Row | Sequence | polyreactivity (PSR sort gate)
1 | QVQLVDSGGGLVQAGGSLRLSCAASGNILRKYAMGWYRQAPGKERELVAAISSSGGRTYYADSVKGRFTISRDNAKNTVYLQMYSLKPEDTAVYYCAKDPYGRLQPRPRFGYWGQGTQVTVTS | high polyreactivity
2 | QVQLVESVGGLVQAGGSLRLSCAASGRIFYFNGMGWYRQAPGKERELVAAITISTGSTYYADSVKGRFTISRDNAKNTVYLQMNSLKPEDTAVYYCNVEFEYSGWKSFDYWGQGTQVTVSS | low polyreactivity
3 | QVQLVESGGGLVQAGGSLRLSCAASVRTFGFNVMGWYRQAPGKERELVAAISWSGGSTYYADSVKGRFTISRDNAKNTVYLQMNSLKPEVTAVYYCNKRYVHRYGYWGQGTQVTVSS | low polyreactivity
4 | QVQLVESGGGLVQAGGSLRLSCAASGFTFAVYAMGWYRQAPGKERELVAAITTSGTRTYYADSVKGRFTISRDNAKNTVYLQMNSLKPEDTAVYYCAAVGFRQWPEFDYWGQGTQVTVSS | low polyreactivity
5 | QVQLVESGGGLVQAGGSLRLICAASGSTFIPNAMGWYRQSPGKERELVAAISTGGSTNYADSVKGRFTISRDNAKNTVYLQINCLKPEDTAVYYCNARRGYYNPGRRFYYWGQGTQVTVSS | low polyreactivity
6 | QVQLVESGGGLVQAGGSLRLSCAASGSIFTFYDMGWYRQAPGKERELVAAISSGGSTTYADSVKGRFTISRDNAKNTVYLQMNSLKPEDTAVYYCAADSQPYLYPVEYDYWGQGTQVTVSS | low polyreactivity
7 | QVQLVESGGGLVQAGGSLRLSCAASGRTFVSYTMVWYRQAPGKERELVAAISSGGSTTYADSVKGRFTISRDNAKNTVYLQKNSLKPEDTAVYYCNARYGWSYWSKYDYWGQGTQVTVSS | high polyreactivity
8 | QVQLEESGGGLVQAGGSLRLSCAASGLTFRIYAMGWYRQAPGKERELVATISTRGGSTYYADSVKGRFTISRDNPKNTVYLQMNSLQPEDTAVYYCAASLGWFSGSLYNYWGQGTQVTVSS | high polyreactivity
9 | LVQLVESGGGLVQAGGSLRLSCAASGRIFPYYMGSYRQAPGKERELVAVKSSGDGTYYADSVKGRFTISRDNAKNTVYFQMNRLKPEDTAVYYCAADAPREYVDHYKYDDDYWGQGTQVTVSS | low polyreactivity
10 | QVQLVESGGGLVQAGGSLRLSCSASGIIMDPNAMGWYRQAPGKERELVAGITRSGVSTYYSDSVKGRFTISRDNAKNTVYLLMNSLKPEDTAVYYCAKDRIYGSKGEDEDYWGQGSQVTVSS | low polyreactivity
11 | QVQLVESGGGLVQAGGSLRLSCAASGNIFSTYAMGWYRQAPGKERELVASISENGGSTYYADSVKGRFTISRDNAKNTVYLQMNSLKPEDTAVYYCNADAYVYFDDGDYWGQGTQVTVSS | low polyreactivity
12 | QVQLVESGGGLVQAGGSLRLSCASSGRIFRYNTMGWYRPAPGKERELVADITSSDSSTYYADSVKGRFTISRDNAKNTVDLQMNSLKPEETAVYYCAARDSGYGWRYSYWGQGTQVTVSA | low polyreactivity
13 | QVQLVESGGGLVQAGGSLRLSCAASGLIFGAYTMGWYRQAPGKERELVASITTSGDSTYYADSVKGRFTISRDNAKNTVYLQMNSLKPEDTAVYYCAAESTVGTDLGGDSWGQGTQVTVSS | high polyreactivity
14 | QVQLVESGGGLVQAGGSLRLSCAASGISDWYAMGWYRQAPGKERELVASITDGGSTKYADSVKGRFTISRDNAKNTVYLQMNSLKPEDTAVYYCNTTFRVYFSRSWWSRYYYWGLGTQVTVSS | low polyreactivity
15 | QVQLVESGGGLVQAGGSLRLICAASGSTFSINAMGRYRQAPGKERELVAAITTSVDSTYYADSVKGRFTISRDNAKNTVYLQMNSLIPEDTAVYYCAVAFVQFNQYDYWGQGTQVTVSS | low polyreactivity
16 | QVQLVESGGGLFQAGGSLRLSCAASGSTFDTNVMGWYRQAPGKERELVAAIDVSGGSTYYADSVKGRFTISRDNAKNTVYLQMNSLKPEDTAVYYCAAEGTTWYYDMDYWGQGTQVTVSS | low polyreactivity
17 | QVQLVESGGGLVQAGGSLRLSCAASGSIFWRYAMGWYRQAPGKERELVAAITWSGGTSYADSVKGRFTLSRDNAKNTVYLQMNSLKQEDTAVYYCIADGLSYYLYDYWGQGTQVTVSS | low polyreactivity
